Experimental findings from publication PMC3776838, “Detection of Phospho-Sites Generated by Protein Kinase CK2 in CFTR: Mechanistic Aspects of Thr1471 Phosphorylation” (PLoS ONE, 2013) are described below.

This assay concerns the target Human CK2 α2β2-holoenzyme (human) (UniProt P68400).

Human CK2 α2β2-holoenzyme (human), sequence (P68400 whole entry, chain 1 of 2): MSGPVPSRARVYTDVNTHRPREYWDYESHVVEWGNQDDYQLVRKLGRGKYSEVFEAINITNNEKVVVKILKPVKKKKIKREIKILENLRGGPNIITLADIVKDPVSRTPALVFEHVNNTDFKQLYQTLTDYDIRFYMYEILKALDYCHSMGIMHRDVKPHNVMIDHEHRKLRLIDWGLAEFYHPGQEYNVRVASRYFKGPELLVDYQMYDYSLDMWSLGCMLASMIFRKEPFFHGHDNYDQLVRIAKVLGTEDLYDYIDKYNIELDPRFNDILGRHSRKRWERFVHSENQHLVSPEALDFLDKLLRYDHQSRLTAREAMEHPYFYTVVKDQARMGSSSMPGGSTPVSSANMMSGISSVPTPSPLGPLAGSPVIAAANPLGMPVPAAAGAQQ
Human CK2 α2β2-holoenzyme (human), sequence (P67870 whole entry, chain 2 of 2, further chain): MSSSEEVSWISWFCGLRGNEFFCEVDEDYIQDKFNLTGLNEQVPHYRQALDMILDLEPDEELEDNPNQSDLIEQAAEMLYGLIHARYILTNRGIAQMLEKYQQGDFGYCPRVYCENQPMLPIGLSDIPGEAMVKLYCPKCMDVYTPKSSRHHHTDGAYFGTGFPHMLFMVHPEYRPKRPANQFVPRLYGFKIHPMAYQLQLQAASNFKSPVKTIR
42-mer peptide reproducing the C-terminal tail of human CFTR (residues 1439–1480), sequence (P13569 1439-1480): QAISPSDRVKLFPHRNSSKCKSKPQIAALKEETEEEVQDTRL

Regarding “42-mer peptide reproducing the C-terminal tail of human CFTR (residues 1439–1480) (from UniProt P13569 1439-1480) (domain or fragment)”, the Km of phosphorylation of the 42-mer by CK2 holoenzyme (33P incorporation, Figure 3) is 1.4 µM.
